This is an account of results in paper PMC10397247.

What all share (assay): two-hybrid library CCNG1;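 also: natural log of median RNA to DNA barcode read ratio; higher means stronger binding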
In one assay the target is T1, 4H112-bA.
T1 chain: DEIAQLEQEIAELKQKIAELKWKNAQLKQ

A further assay has as its target T2, O8-bH.
T2 chain: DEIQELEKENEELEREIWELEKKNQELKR

The target in a further assay is T3, 4H2702-bA.
T3 chain: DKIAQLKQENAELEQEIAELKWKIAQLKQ

In another assay the target is T4, 4H575-bA.
T4 chain: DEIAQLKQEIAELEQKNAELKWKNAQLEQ

The next assay addresses T5, 4H3427-bA.
T5 chain: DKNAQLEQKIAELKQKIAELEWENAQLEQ

Another assay has as its target T6, 4H1158-bA.
T6 chain: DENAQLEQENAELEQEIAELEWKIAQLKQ

In another assay the target is T7, 4H754-bA.
T7 chain: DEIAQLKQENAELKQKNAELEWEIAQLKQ

Another assay addresses T8, 4H3010-bA.
T8 chain: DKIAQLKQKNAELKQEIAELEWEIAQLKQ

The target of another assay is T9, 4H968-bA.
T9 chain: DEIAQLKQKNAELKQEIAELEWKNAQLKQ

Another assay has as its target T10, 4H780-bA.
T10 chain: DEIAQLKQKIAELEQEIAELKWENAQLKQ

In another assay the target is T11, 4H457-bA.
T11 chain: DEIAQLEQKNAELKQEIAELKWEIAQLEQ

For a further assay, the target named is T12, 4H3907-bN.
T12 chain: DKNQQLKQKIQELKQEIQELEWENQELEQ

A further assay deals with T13, 4H855-bA.
T13 chain: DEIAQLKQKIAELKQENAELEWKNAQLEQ

The next assay deals with T14, 4H1831-bA.
T14 chain: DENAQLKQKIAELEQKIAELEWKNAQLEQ

The target in another assay is T15, 4H918-bA.
T15 chain: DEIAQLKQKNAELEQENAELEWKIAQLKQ

Another assay addresses T16, 4H2673-bA.
T16 chain: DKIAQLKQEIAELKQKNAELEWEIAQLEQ

A further assay deals with T17, 4H953-bA.
T17 chain: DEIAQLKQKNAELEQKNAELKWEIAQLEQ

Another assay addresses T18, 4H170-bA.
T18 chain: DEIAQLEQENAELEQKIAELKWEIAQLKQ

Another assay concerns the target T19, 4H2586-bA.
T19 chain: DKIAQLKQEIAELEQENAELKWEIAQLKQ

The next assay addresses T20, 4H683-bA.
T20 chain: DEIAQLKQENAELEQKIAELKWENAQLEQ

Another assay addresses T21, 4H3926-bA.
T21 chain: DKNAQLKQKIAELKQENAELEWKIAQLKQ

Another assay deals with T22, 4H3112-bA.
T22 chain: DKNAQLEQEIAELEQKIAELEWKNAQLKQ

The target of a further assay is T23, 4H4073-bA.
T23 chain: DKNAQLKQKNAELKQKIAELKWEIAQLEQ

In another assay the target is T24, 4H118-bA.
T24 chain: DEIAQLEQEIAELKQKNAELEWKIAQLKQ

The target of a further assay is T25, 4H2627-bA.
T25 chain: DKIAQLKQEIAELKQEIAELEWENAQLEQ

The next assay addresses T26, 4H346-bA.
T26 chain: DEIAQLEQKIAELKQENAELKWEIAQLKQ

For the next assay, the target named is T27, 4H797-bA.
T27 chain: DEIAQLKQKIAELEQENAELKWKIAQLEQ

The target of the next assay is T28, P2bH1.
T28 chain: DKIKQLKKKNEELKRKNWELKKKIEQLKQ

A further assay has as its target T29, P4bH1.
T29 chain: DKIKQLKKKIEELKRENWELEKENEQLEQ

The target in another assay is T30, P5bH1.
T30 chain: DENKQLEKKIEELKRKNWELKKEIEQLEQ

The next assay deals with T31, P3bH1.
T31 chain: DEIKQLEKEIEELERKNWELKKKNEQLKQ

In a further assay the target is T32, P12bH1.
T32 chain: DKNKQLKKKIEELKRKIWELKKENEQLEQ

The target of another assay is T33, P11bH1.
T33 chain: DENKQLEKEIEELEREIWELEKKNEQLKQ

The target of another assay is T34, P7bH1.
T34 chain: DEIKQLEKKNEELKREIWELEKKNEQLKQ

The target in a further assay is T35, P6bH1.
T35 chain: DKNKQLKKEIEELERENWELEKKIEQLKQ

In another assay the target is T36, P1bH1.
T36 chain: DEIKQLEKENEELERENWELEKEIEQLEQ

Another assay concerns the target T37, P9bH1.
T37 chain: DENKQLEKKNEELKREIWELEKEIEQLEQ

The target in a further assay is T38, P8bH1.
T38 chain: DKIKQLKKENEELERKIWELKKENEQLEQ

A further assay concerns the target T39, 4H462-bN.
T39 chain: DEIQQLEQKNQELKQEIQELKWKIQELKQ

In another assay the target is T40, 4H4001-bN.
T40 chain: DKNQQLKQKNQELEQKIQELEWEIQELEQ

A further assay concerns the target T41, 4H3782-bN.
T41 chain: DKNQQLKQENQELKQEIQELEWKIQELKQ

Another assay addresses T42, 4H2610-bN.
T42 chain: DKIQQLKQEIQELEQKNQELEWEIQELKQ

The target in the next assay is T43, 4H1387-bN.
T43 chain: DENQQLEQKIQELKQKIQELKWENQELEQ

The target in the next assay is T44, 4H883-bN.
T44 chain: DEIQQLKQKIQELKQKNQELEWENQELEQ

Another assay addresses T45, 4H331-bN.
T45 chain: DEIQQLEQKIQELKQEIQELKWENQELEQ

The next assay concerns the target T46, 4H2667-bN.
T46 chain: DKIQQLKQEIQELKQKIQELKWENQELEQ

The next assay concerns the target T47, 4H953-bN.
T47 chain: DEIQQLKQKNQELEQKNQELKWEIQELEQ

The target in a further assay is T48, 4H1328-bN.
T48 chain: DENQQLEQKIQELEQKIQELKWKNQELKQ

For another assay, the target named is T49, 4H568-bN.
T49 chain: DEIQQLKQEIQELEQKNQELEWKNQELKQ

The next assay has as its target T50, 4H3601-bN.
T50 chain: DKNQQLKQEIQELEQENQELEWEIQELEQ

The next assay deals with T51, 4H687-bN.
T51 chain: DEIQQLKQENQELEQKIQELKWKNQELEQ

For another assay, the target named is T52, 4H918-bN.
T52 chain: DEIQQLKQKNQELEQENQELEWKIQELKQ

A further assay has as its target T53, 4H72-bN.
T53 chain: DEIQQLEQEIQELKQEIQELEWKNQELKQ

For a further assay, the target named is T54, 4H3843-bN.
T54 chain: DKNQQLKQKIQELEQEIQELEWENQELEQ

For the next assay, the target named is T55, 4H607-bN.
T55 chain: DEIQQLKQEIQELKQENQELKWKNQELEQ

The next assay concerns the target T56, 4H797-bN.
T56 chain: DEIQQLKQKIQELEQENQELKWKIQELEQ

A further assay deals with T57, 4H1193-bN.
T57 chain: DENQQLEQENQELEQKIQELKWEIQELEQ

In the next assay the target is T58, 4H967-bN.
T58 chain: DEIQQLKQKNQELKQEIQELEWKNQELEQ

In the next assay the target is T59, 4H4038-bN.
T59 chain: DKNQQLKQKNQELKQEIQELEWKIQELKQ

Another assay concerns the target T60, 4H2697-bN.
T60 chain: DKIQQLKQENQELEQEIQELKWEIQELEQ

The target of a further assay is T61, 4H3189-bN.
T61 chain: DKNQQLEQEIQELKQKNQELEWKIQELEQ

A further assay has as its target T62, 4H1406-bN.
T62 chain: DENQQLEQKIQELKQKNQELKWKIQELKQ

Another assay addresses T63, 4H3592-bN.
T63 chain: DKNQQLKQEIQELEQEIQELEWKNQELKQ

The target in another assay is T64, 4H3606-bN.
T64 chain: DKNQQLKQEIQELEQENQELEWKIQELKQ

A further assay concerns the target T65, 4H370-bN.
T65 chain: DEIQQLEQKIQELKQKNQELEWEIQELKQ

In a further assay the target is T66, 4H2576-bN.
T66 chain: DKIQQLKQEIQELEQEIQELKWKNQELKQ

The next assay deals with T67, 4H1845-bN.
T67 chain: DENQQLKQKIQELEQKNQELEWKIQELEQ

For another assay, the target named is T68, 4H1369-bN.
T68 chain: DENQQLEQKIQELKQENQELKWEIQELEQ

Another assay addresses T69, 4H1446-bN.
T69 chain: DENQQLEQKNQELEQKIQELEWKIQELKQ

Take DEIAQLEQEIAELKQKIAELKWKNAQLKQ [4H112-bA]: the interaction score is 2.02 with 4H112-bA; -2.98 in the assay with O8-bH; 0.586 with 4H2702-bA; -0.781 with 4H575-bA; 1.34 in the assay with 4H3427-bA; 0.722 with 4H1158-bA. In addition, the interaction score with 4H754-bA is -0.627; in the assay with 4H3010-bA it was 1.69; with 4H968-bA, 0.422; with 4H780-bA it was -0.588; in the assay with 4H457-bA, 1.18; in the assay with 4H3907-bN, 1.94. Further, the interaction score in the assay with 4H855-bA is 0.496; in the assay with 4H1831-bA it was -0.538; with 4H918-bA, -1.12; in the assay with 4H2673-bA, 1.17; with 4H953-bA it was 0.0535; with 4H170-bA, 0.905. Also, the interaction score with 4H2586-bA was -0.329; with 4H683-bA, 0.303; with 4H3926-bA, 0.327; with 4H3112-bA it was 1.9; with 4H4073-bA, 1.5; in the assay with 4H118-bA it was -1.17. Also, the interaction score with 4H2627-bA is 1.89; with 4H346-bA it was -0.491; with 4H797-bA it was 0.104.
As to DENKQLEKEIEELEREIWELEKKNEQLKQ [P11bH1], the interaction score in the assay with P2bH1 was 1.25; in the assay with P4bH1, 1.12; in the assay with P5bH1 it was 1.1; with P3bH1 it was -0.0263; with P12bH1, 0.0252; with P11bH1, 0. The interaction score in the assay with P7bH1 was -0.507; with P6bH1 it was 0.725; with P1bH1 it was -2.02; with P9bH1 it was -0.076; in the assay with P8bH1, 0.239.
Regarding DENQQLEQENQELEQKIQELKWEIQELEQ [4H1193-bN], the interaction score was 1.11 with 4H462-bN; -0.667 in the assay with 4H4001-bN; 1.24 in the assay with 4H3782-bN; -2.18 with 4H2610-bN; -2.15 with 4H1387-bN; -0.365 in the assay with 4H883-bN. Also, the interaction score with 4H331-bN is -1.06; with 4H2667-bN, -1.42; in the assay with 4H953-bN, -0.991; with 4H1328-bN, -0.785; with 4H568-bN, -0.982; with 4H3601-bN it was -0.788. Also, the interaction score is -0.463 with 4H687-bN; -1.23 with 4H918-bN; -2.07 with 4H72-bN; -1.2 with 4H3843-bN; -0.718 with 4H607-bN; -0.958 in the assay with 4H797-bN. The interaction score with 4H3907-bN is -0.628; with 4H1193-bN it was -1.79; with 4H967-bN, -0.916; with 4H4038-bN it was 1.89; in the assay with 4H2697-bN it was -0.604; with 4H3189-bN, -0.76. For the same molecule, the interaction score was -0.457 in the assay with 4H1406-bN; -0.683 with 4H3592-bN; -0.563 with 4H3606-bN; -1.1 with 4H370-bN; -2.2 in the assay with 4H2576-bN; -0.197 with 4H1845-bN. The results for the interaction score with 4H1369-bN and with 4H1446-bN were -0.409 and -0.688, respectively.
